Values of other authors as cited in paper PMC5371392.

Target: KaiC (Synechococcus elongatus) (UniProt Q79PF4)
Chain of UniProt Q79PF4 (Q79PF4 whole entry): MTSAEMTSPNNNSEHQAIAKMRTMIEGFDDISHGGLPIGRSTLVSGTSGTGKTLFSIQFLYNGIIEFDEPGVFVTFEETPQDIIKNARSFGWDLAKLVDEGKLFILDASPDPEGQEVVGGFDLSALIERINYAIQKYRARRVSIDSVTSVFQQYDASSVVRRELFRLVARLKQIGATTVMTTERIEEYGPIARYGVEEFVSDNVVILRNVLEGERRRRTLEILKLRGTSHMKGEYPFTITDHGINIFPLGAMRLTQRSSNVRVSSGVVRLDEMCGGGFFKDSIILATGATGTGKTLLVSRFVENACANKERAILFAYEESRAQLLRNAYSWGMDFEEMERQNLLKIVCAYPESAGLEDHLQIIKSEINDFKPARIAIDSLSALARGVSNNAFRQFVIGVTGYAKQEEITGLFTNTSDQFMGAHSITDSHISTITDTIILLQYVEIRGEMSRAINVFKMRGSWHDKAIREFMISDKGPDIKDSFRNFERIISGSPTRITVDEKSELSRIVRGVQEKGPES

Kd: 1 nM
Substance: KaiA (from UniProt Q79PF6)
